Values joined by “and” are separate entries in the source; they are usually repeats but may differ in a detail not shown here. Equal entries are not always repeated.

In this data set the test system is CN(C)CCc1c[nH]c2ccc(C[C@H]3COC(=O)N3)cc12. Kind of data set: cells, lysate or membranes. The following applies: other: HEK293, 1 min, net uptake; pH 7.4; 37.0 °C.

Chain of MATE2K (Homo sapiens) (chain, as listed by the source): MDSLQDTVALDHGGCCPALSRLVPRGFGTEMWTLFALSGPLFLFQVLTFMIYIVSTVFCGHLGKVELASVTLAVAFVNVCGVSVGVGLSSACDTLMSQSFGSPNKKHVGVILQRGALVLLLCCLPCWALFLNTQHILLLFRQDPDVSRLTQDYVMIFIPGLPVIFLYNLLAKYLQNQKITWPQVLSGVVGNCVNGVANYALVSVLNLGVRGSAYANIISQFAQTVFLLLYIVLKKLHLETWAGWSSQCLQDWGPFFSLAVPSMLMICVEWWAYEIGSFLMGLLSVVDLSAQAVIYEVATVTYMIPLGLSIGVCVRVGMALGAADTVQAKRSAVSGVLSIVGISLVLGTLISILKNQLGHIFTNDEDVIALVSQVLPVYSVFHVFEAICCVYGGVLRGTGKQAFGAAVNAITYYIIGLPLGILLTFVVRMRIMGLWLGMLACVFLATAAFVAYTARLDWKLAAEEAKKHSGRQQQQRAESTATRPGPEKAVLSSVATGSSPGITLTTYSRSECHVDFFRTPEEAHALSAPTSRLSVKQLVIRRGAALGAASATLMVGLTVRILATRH

In the case of MATE2K (Homo sapiens), the Km (in general, the concentration of substrate that gives half-maximal velocity) was 23.1 µM and 18.3 µM; the Vmax (as a rule, the top rate of the reaction or transport when substrate is in excess) is 0.00074 µmol/min/mg and 0.000992 µmol/min/mg; the Vmax/Km was 32.1 µL/min/mg and 54.2 µL/min/mg.

For the origin of these results see article PMC12207590, “Substrate Specificity of the Organic Cation Transporters MATE1 and MATE2K and Functional Overlap with OCT1 and OCT2” (Journal of Medicinal Chemistry, 2025).
